Assays:
Test in all cases: BiFC in tobacco leaf epidermal cells
[1] = target: T1, BSL1 (BiFC construct tested with BSK1-cYFP) (Arabidopsis, UniProt Q8L7U5 1-881)
T1 sequence: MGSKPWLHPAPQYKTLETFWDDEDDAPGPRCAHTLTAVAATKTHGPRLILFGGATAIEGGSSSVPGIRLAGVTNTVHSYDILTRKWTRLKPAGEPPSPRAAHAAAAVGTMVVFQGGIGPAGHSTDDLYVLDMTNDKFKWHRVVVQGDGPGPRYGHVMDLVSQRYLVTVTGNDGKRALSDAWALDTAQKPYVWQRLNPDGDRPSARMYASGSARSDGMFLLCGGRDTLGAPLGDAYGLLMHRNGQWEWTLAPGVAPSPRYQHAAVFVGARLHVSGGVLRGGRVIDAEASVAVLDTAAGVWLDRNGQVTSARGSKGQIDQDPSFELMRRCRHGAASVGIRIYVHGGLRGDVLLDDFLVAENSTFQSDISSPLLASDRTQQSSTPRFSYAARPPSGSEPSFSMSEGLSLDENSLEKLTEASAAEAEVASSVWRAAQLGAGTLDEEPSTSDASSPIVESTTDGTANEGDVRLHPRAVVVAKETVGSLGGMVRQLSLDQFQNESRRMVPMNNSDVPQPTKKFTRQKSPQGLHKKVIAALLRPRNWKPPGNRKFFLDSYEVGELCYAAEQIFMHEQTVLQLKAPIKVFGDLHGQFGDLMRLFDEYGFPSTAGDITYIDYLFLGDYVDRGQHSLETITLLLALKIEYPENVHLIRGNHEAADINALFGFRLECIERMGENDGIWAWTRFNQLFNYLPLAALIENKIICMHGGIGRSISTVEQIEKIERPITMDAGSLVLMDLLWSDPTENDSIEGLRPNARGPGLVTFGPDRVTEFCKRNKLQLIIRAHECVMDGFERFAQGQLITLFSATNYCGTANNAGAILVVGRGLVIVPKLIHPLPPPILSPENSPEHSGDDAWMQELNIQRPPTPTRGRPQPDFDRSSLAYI
Text: (§1) The blot was probed sequentially with MBP-BSU1 and anti-MBP antibody (upper) and then stained with Ponceau S (lower). […] Tobacco leaf epidermal cells were transformed with indicated constructs. At5g49760 is a receptor kinase unrelated to BR signaling used here as a negative control. Bright spots in nYFP+BSK 1-cYFP and At5g49760-nYFP+BSK1-cYFP are chloroplast auto-fluorescence. […] Total protein extracts obtained from Arabidopsis plants (F1) expressing BSU1 -YFP or co-expressing BSU1-YFP and BSK1-myc were immunoprecipitated with anti-myc, and the immunoblot was probed with anti-GFP and anti-myc antibody. […] GST-BSK1 or GST-BSK1 S230A was incubated with GST-BRI1-K or GST for 2 hrs. […] In the presence of BR (+BR), BR binding to the extracellular domain of BRI1 induces dissociation of BKI1 and association and inter-activation between BRI1 and BAKI. Activated BRI1 then phosphorylates BSK1, which in turn dissociates from the receptor complex and interacts with and presumably activate BSU1. BSU1 inactivates BIN2 by dephosphorylating its pTyr200, allowing accumulation of unphosphorylated BZR1/2, likely with help of a phosphatase that is yet to be identified. Unphosphorylated BZR1/2 accumulate in the nucleus and alter the expression of BR-target genes, leading to cellular and developmental responses. While individual representative protein is shown for each function, in Arabidopsis most of these components have about 2 to 5 homologous proteins (paralogs) that can contribute to the same or similar signaling function.
(§2) Transformation by Agrobacterium infiltration, observations of subcellular localization and BiFC signal in tobacco or Arabidopsis were performed as described previously 5.

At5g49760-nYFP = target: T2, At5g49760-nYFP (UniProt Q8GZ99 24-953)
T2 construct: BiFC negative control; not shown: N-terminal half of YFP (nYFP)
T2 sequence (looked up): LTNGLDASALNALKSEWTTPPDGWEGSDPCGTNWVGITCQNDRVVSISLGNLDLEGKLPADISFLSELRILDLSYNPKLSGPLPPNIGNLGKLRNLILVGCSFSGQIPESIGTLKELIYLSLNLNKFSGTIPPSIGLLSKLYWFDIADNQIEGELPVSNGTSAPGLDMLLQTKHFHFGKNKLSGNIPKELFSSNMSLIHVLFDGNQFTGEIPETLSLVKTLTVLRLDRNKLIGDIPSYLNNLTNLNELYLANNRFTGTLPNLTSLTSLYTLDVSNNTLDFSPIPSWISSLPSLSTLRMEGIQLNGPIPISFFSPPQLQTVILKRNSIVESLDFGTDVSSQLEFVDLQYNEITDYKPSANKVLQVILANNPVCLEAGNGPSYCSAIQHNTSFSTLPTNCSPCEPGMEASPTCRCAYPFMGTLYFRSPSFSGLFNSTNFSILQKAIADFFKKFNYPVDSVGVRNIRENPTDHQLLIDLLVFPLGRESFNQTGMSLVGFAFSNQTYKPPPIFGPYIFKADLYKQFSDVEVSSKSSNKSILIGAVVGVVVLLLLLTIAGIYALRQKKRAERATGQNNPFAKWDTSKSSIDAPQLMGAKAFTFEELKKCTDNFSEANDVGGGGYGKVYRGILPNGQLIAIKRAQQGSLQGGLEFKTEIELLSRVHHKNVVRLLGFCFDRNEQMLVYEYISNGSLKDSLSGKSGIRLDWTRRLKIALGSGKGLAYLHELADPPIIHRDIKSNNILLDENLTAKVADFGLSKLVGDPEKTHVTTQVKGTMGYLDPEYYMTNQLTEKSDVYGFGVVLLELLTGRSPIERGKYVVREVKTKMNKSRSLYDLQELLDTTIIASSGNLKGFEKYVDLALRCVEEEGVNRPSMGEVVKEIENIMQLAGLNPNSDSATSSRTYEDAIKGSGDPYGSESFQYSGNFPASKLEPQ
Text: as §1, §2

[2] = target: BSU1 (BiFC construct tested with BSK1-cYFP) (Arabidopsis, UniProt Q9LR78 1-793)
Sequence of BSU1 (BiFC construct tested with BSK1-cYFP) (Q9LR78 whole entry): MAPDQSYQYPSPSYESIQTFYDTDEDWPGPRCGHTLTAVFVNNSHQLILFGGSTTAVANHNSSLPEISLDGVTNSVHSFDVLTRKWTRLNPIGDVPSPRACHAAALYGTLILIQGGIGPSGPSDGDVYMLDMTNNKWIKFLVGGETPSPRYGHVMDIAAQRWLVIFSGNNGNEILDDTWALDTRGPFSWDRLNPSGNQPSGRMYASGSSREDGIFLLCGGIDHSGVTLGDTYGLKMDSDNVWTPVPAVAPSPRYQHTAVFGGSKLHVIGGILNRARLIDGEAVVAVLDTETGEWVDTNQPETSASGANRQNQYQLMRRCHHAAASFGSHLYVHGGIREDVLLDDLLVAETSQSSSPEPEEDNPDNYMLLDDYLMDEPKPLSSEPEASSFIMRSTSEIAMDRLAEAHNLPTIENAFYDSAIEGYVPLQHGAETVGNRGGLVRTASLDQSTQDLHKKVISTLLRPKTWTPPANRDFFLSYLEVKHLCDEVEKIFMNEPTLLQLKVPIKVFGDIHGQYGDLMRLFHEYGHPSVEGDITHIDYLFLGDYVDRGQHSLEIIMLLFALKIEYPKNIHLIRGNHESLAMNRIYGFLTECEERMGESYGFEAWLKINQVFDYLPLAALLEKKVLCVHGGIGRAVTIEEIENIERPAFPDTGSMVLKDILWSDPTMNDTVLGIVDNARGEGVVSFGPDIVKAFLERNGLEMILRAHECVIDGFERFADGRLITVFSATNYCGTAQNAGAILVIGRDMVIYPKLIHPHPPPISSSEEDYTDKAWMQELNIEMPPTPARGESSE
Text: as §1, §2

B1: BSK1-cYFP (enzyme, Arabidopsis, UniProt Q944A7 2-512, looked up)
chain: GCCQSLFSGDNPLGKDGVQPQPLSQNNHGGATTADNGGSGGASGVGGGGGGGGIPSFSEFSFADLKAATNNFSSDNIVSESGEKAPNLVYKGRLQNRRWIAVKKFTKMAWPEPKQFAEEAWGVGKLRHNRLANLIGYCCDGDERLLVAEFMPNDTLAKHLFHWENQTIEWAMRLRVGYYIAEALDYCSTEGRPLYHDLNAYRVLFDEDGDPRLSCFGLMKNSRDGKSYSTNLAYTPPEYLRNGRVTPESVTYSFGTVLLDLLSGKHIPPSHALDMIRGKNIILLMDSHLEGKFSTEEATVVVELASQCLQYEPRERPNTKDLVATLAPLQTKSDVPSYVMLGIKKQEEAPSTPQRPLSPLGEACSRMDLTAIHQILVMTHYRDDEGTNELSFQEWTQQMKDMLDARKRGDQSFREKDFKTAIDCYSQFIDVGTMVSPTVFGRRSLCYLLCDQPDAALRDAMQAQCVYPDWPTAFYMQSVALAKLNMNTDAADMLNEAAQLEEKRQRGGRGS
notes: BiFC construct in tobacco leaf epidermal cells; not shown: C-terminal half of YFP (cYFP)
binding result [1]: binds
binding result (At5g49760-nYFP): no binding
binding result [2]: binds

Reference: patent US20120322150A1 (CARNEGIE INSTITUTION OF WASHINGTON, published 2012)
